Measured values published in publication PMC7104937.

Target: soluble ectodomain protein of human CD26 (hCD26) (human), P27487
Assay: crystal structure
Conditions: remark: other sources report otherwise

B1: soluble ectodomain protein of human CD26 (hCD26), P27487 29-766 (receptor)
chain: NKGTDDATADSRKTYTLTDYLKNTYRLKLYSLRWISDHEYLYKQENNILVFNAEYGNSSVFLENSTFDEFGHSINDYSISPDGQFILLEYNYVKQWRHSYTASYDIYDLNKRQLITEERIPNNTQWVTWSPVGHKLAYVWNNDIYVKIEPNLPSYRITWTGKEDIIYNGITDWVYEEEVFSAYSALWWSPNGTFLAYAQFNDTEVPLIEYSFYSDESLQYPKTVRVPYPKAGAVNPTVKFFVVNTDSLSSVTNATSIQITAPASMLIGDHYLCDVTWATQERISLQWLRRIQNYSVMDICDYDESSGRWNCLVARQHIEMSTTGWVGRFRPSEPHFTLDGNSFYKIISNEEGYRHICYFQIDKKDCTFITKGTWEVIGIEALTSDYLYYISNEYKGMPGGRNLYKIQLSDYTKVTCLSCELNPERCQYYSVSFSKEAKYYQLRCSGPGLPLYTLHSSVNDKGLRVLEDNSALDKMLQNVQMPSKKLDFIILNETKFWYQMILPPHFDKSKKYPLLLDVYAGPCSQKADTVFRLNWATYLASTENIIVASFDGRGSGYQGDKIMHAINRRLGTFEVEDQIEAARQFSKMGFVDNKRIAIWGWSYGGYVTSMVLGSGSGVFKCGIAVAPVSRWEYYDSVYTERYMGLPTPEDNLDHYRNSTVMSRAENFKQVEYLLIHGTADDNVHFQQSAQISKALVDVGVDFQAMWYTDEDHGIASSTAHQHIYTHMSHFIKQCFSLP
With B1 the stoichiometry N was 2.
